Test results taken from US20060293221A1.

Assays:
[1] = target: Mucin I: Crude mucin, type II from porcine stomach (Sigma)
[2] = target: Mucin I: Crude mucin, type II from porcine stomach (Sigma); remark: listed apart in the source
[3] = target: Mucin I: Crude mucin, type II from porcine stomach (Sigma); remark: listed apart in the source

viscosity, rheometer, constant rate (stress versus shear rate) [1] [factor]	Elastic modules G' (Pa) at 1 Hz, oscillatory measurement [2] [Pa]	viscosity, rheometer, comparison of four TFF2 peptides (7.05 mg in 2 ml 10% mucin I) [3] [Pa s]	Substance
10	17	0.8	glycosylated recombinant human Asn99-TFF2 (from UniProt Q03403) (ligand)
		0.54	non-glycosylated recombinant human Asn99-TFF2 (from UniProt Q03403) (ligand)
